Values of other authors, collected in publication PMC6435036 (Molecular pharmaceutics, 2017).

Settings: in humans

Question: For “ApoA-I: endogenous apolipoprotein A-I, main protein of HDL”, which “half-life of endogenous ApoA-I protein” value is on record?
Answer: Its value is 79.2 h.
